Measured values taken from patent publication US20190211057A1 (NATIONAL YANG MING UNIVERSITY, published 2019).
Substitutions are numbered along the chain they refer to. Numbers in names are those of the source.

Experiments:
[1] = target: T1, integrin αvβ3 receptor on cells (HUVEC, U87MG, MCF-7, ES-2-luc) (human, UniProt P06756 31-1048; P05106 27-788); assay: cell-based or functional assay
[2] = target: T1, integrin αvβ3 receptor on cells (HUVEC, …); assay: cell ELISA, HUVEC against MCF-7
[3] = target: T1, integrin αvβ3 receptor on cells (HUVEC, …); assay: cell ELISA, U87MG against MCF-7
[4] = target: T1, integrin αvβ3 receptor on cells (HUVEC, …); assay: cell ELISA on HUVEC cells, anti-His-HRP
Description: (§1) After reacted with anti-His-HRP antibody and TMB substrate, ELISA reader (OD450 nm) is used to detect the amount of recombinant protein bound to the cells, and the binding curve is drawn. The nonlinear curve of the prism software is used to make a diagram and calculate the dissociation constant (Kd).
(§2) The anti-His6-Tag-HRP antibody and TMB show the color reagent to detect the amount of recombinant protein bound to the cell, then the dissociation constant Kd value of the recombinant protein and the integrin αᵥβ₃ receptor is calculated and a binding curve is drawn.

[5] = target: T1, integrin αvβ3 receptor on cells (HUVEC, …); assay: cell ELISA on U87MG cells, anti-His-HRP
Description: as §1, §2

[6] = target: T1, integrin αvβ3 receptor on cells (HUVEC, …); assay: cell ELISA on MCF-7 cells (low αvβ3 expression), anti-His-HRP
Description: as §1, §2

integrin αvβ3 receptor [7] = target: T2, integrin αvβ3 receptor (UniProt P06756 31-992; P05106 27-718); assay: ELISA on integrin αvβ3 receptor, anti-His6-HRP detection, curve fit
T2 construct: also called αvβ3 integrin; αvβ3 integrin receptor
Description: (§3) The dissociation constant Kd is obtained by prism software with curve fitting method.

[8] = target: T1, integrin αvβ3 receptor on cells (HUVEC, …); assay: immunofluorescence on U87MG and HUVEC cells, no anti-His6tag signal
Description: Immunofluorescence is used to observe the distribution of the protein bound with cell in the cell.

integrin αvβ3 receptor [9] = target: T2, integrin αvβ3 receptor; assay: ELISA on integrin αvβ3 receptor, anti-His6-HRP; paragraph 61 says yCD and yCD/UPRT cannot be bound to integrin αvβ3
Description: as §3

[10] = target: T1, integrin αvβ3 receptor on cells (HUVEC, …); assay: cell-based or functional assay; remark: listed apart in the source
[11] = target: T1, integrin αvβ3 receptor on cells (HUVEC, …); assay: cell-based or functional assay; remark: listed apart in the source
integrin αvβ3 receptor [12] = target: T2, integrin αvβ3 receptor; assay: ELISA on αvβ3 integrin receptor
[13] = target: T1, integrin αvβ3 receptor on cells (HUVEC, …); assay: cell ELISA on fixed HUVEC cells, anti-His6tag-HRP
[14] = target: T1, integrin αvβ3 receptor on cells (HUVEC, …); assay: cell ELISA on fixed U87MG cells, anti-His6tag-HRP
[15] = target: T1, integrin αvβ3 receptor on cells (HUVEC, …); assay: cell ELISA on fixed MCF-7 cells (low αvβ3 expression), anti-His6tag-HRP
integrin αvβ3 receptor [16] = target: T2, integrin αvβ3 receptor; assay: ELISA on integrin αvβ3 receptor (repeats Table 14)
integrin αvβ3 receptor [17] = target: T2, integrin αvβ3 receptor; assay: ELISA on integrin αvβ3 receptor, one site-specific binding fit
Description: The curve and receptor binding ability parameters (see FIG. 19 and Table 14) are fitted by the binding ability of DTPA-modified protein and integrin αᵥβ₃ receptor through the One site-Specific binding formula in the Graph prism program.

T2 sequence (P06756 31-992, chain 1 of 2): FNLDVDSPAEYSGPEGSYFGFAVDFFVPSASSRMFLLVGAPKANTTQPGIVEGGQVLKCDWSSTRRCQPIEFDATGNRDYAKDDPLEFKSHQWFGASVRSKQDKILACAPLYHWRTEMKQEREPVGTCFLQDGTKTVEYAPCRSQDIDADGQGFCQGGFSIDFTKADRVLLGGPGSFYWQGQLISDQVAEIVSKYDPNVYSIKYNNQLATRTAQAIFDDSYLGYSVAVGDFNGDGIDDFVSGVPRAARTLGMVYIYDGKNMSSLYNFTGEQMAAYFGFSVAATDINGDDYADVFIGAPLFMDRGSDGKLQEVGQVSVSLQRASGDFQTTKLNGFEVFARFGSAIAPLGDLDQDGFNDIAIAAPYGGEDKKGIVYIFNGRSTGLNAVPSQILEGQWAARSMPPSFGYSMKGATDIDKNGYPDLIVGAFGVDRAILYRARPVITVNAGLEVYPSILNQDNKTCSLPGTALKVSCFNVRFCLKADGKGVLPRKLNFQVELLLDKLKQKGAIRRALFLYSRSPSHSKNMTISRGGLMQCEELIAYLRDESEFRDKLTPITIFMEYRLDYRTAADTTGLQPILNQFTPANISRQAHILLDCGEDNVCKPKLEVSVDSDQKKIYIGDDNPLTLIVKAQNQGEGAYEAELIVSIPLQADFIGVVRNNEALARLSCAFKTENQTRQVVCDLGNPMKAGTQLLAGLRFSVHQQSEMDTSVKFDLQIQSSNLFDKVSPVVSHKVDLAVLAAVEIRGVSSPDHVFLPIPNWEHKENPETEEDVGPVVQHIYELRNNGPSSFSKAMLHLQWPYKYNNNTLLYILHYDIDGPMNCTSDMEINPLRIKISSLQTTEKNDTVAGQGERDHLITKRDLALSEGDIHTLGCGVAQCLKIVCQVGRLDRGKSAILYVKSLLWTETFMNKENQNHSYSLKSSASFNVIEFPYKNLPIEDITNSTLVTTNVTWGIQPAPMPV
T2 sequence (P05106 27-718, chain 2 of 2): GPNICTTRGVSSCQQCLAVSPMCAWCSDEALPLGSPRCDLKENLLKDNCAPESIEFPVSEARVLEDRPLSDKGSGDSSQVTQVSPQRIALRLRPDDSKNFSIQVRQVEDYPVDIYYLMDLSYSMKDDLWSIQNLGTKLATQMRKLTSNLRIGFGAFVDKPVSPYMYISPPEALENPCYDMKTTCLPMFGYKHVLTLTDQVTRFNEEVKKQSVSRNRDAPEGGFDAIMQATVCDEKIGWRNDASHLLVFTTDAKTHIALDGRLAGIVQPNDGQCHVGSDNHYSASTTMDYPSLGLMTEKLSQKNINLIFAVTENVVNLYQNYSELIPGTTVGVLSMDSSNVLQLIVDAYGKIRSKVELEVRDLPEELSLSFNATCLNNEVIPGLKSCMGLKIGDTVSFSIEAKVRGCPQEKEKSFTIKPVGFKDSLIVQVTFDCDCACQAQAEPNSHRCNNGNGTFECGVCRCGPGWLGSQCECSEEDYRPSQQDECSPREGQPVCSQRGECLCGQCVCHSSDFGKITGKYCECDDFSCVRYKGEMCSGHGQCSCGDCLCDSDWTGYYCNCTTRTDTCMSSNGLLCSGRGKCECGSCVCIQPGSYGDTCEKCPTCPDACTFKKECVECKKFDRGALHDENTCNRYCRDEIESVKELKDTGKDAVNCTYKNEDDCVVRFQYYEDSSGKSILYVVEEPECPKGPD
T1 sequence (P06756 31-1048, chain 1 of 2): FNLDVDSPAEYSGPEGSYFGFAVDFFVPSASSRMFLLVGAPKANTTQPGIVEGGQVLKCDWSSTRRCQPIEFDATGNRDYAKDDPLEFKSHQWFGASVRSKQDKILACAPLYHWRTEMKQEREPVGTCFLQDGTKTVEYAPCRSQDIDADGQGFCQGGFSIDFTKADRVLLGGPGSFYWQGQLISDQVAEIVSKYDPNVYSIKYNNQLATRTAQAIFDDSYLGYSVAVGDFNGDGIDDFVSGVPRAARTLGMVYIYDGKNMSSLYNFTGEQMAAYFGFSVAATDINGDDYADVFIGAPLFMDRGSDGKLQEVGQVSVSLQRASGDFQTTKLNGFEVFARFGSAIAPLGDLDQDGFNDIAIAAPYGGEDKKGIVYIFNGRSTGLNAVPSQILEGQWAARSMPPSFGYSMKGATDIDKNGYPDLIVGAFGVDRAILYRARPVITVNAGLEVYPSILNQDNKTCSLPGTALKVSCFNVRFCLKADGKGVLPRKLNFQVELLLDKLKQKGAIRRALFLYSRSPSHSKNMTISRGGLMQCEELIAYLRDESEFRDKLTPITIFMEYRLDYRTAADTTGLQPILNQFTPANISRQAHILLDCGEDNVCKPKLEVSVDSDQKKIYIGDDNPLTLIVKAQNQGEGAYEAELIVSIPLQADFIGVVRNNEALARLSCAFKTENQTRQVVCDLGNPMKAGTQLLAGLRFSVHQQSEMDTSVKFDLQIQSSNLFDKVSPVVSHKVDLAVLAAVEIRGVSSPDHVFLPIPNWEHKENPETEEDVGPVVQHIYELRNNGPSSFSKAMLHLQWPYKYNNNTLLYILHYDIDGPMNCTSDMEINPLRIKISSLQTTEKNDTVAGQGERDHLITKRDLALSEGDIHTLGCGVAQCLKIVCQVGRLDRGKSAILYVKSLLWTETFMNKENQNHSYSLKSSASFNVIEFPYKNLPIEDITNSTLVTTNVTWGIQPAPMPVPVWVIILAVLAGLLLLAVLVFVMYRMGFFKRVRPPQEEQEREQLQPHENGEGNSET
T1 sequence (P05106 27-788, chain 2 of 2): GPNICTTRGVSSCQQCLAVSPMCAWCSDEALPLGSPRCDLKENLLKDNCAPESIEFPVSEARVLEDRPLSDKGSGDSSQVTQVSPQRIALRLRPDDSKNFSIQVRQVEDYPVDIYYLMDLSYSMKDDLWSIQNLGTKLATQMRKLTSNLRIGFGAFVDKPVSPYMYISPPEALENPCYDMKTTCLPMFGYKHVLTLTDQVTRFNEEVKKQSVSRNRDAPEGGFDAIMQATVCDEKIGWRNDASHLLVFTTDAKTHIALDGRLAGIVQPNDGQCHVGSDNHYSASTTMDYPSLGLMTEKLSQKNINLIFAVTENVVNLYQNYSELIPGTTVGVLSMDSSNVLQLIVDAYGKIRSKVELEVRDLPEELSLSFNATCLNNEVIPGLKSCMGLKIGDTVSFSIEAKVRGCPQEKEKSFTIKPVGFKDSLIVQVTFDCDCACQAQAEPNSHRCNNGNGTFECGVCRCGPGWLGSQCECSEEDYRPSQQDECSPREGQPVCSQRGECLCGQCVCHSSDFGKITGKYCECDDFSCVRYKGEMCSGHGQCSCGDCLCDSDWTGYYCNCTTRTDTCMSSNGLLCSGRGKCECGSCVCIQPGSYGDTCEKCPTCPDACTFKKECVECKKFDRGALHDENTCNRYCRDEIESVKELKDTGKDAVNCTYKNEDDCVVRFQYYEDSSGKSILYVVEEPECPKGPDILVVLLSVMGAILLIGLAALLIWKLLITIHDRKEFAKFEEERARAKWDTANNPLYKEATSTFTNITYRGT

B1: RGD4C-yCD/UPRT (other)
chain: MACDCRGDCFCVTGGMASKWDQKGMDIAYEEAALGYKEGGVPIGGCLINNKDGSVLGRGHNMRFQKGSATLHGEISTLENCGRLEGKVYKDTTLYTTLSPCDMCTGAIIMYGIPRCVVGENVNFKSKGEKYLQTRGHEVVVVDDERCKKIMKQFIDERPQDWFEDIGEASEPFKNVYLLPQTNQLLGLYTIIRNKNTTRPDFIFYSDRIIRLLVEEGLNHLPVQKQIVETDTNENFEGVSFMGKICGVSIVRAGESMEQGLRDCCRSVRIGKILIQRDEETALPKLFYEKLPEDISERYVFLLDPMLATGGSAIMATEVLIKRGVKPERIYFLNLICSKEGIEKYHAAFPEVRIVTGALDRGLDENKYLVPGLGDFGDRYYCVLEHHHHHH
notes: Fusion of the RGD4C peptide, yCD and yeast UPRT; His6-tagged recombinant protein; also called RGD4C-yCD/UPRPT
In the case of B1, the “IC50 of 5-FC, MTT cytotoxicity, HUVEC cells incubated with 500 nM protein then washed” value [1] is reported as 8.6 µM, the “IC50 of 5-FC, MTT cytotoxicity, MCF-7 cells (low αvβ3) incubated with 500 nM protein then washed” value [1] is reported as 4340 µM and the “IC50 of 5-FC, MTT cytotoxicity, U87MG cells incubated with 500 nM protein then washed” value [1] is reported as 5.1 µM. For the same binder, the “fold cell binding ability against MCF-7” value [2] was ~6.9 fold, the “fold cell binding ability against MCF-7” value [3] was ~5.8 fold and the Kd [4] was 0.0483 µM. It also gave a Kd [5] of 0.0578 µM, a Kd [6] of 0.335 µM and a Kd (integrin αvβ3 receptor [7]) of 0.0417 µM.

B2: EcCD_WT (enzyme, E. coli)
chain: MSNNALQTIINARLPGEEGLWQIHLQDGKISAIDAQSGVMPITENSLDAEQGLVIPPFVEPHIHLDTTQTAGQPNWNQSGTLFEGIERWAERKALLTHDDVKQRAWQTLKWQIANGIQHVRTHVDVSDATLTALKAMLEVKQEVAPWIDLQIVAFPQEGILSYPNGEALLEEALRLRADVVGAIPHFEFTREYGVESLHKTFALAQKYDRLIDVHCDEIDDEQSRFVETVAALAHHEGMGARVTASHTTAMHSYNGAYTSRLFRLLKMSGINFVANPLVNIHLQGRFDTYPKRRGITRVKEMLESGINVCFGHDDVFDPWYPLGTANMLQVLHMGLHVCQLMGYGQINDGLNLITHHSARTLNLQDYGIAAGNSANLIILPAENGFDALRRQVPVRYSVRGGKVIASTQPAQTTVYLEQPEAIDYKRLEHHHHHH
notes: Control without RGD4C; also called E. coli cytosine deaminase (EcCD) wild type
B2: no binding [8].

B3: EcCD_D314A (enzyme)
chain: B2 chain with D315A
notes: Control without RGD4C; also called E. coli cytosine deaminase D314A mutant
B3: no binding [8].

B4: yCD/UPRT (enzyme)
chain: MVVTGGMASKWDQKGMDIAYEEAALGYKEGGVPIGGCLINNKDGSVLGRGHNMRFQKGSATLHGEISTLENCGRLEGKVYKDTTLYTTLSPCDMCTGAIIMYGIPRCVVGENVNFKSKGEKYLQTRGHEVVVVDDERCKKIMKQFIDERPQDWFEDIGEASEPFKNVYLLPQTNQLLGLYTIIRNKNTTRPDFIFYSDRIIRLLVEEGLNHLPVQKQIVETDTNENFEGVSFMGKICGVSIVRAGESMEQGLRDCCRSVRIGKILIQRDEETALPKLFYEKLPEDISERYVFLLDPMLATGGSAIMATEVLIKRGVKPERIYFLNLICSKEGIEKYHAAFPEVRIVTGALDRGLDENKYLVPGLGDFGDRYYCVLEHHHHHH
notes: Control fusion without RGD4C
B4: no binding (integrin αvβ3 receptor [9]).

B5: RGD4C-EcCD_WT (other)
chain: MGCDCRGDCFCMSNNALQTIINARLPGEEGLWQIHLQDGKISAIDAQSGVMPITENSLDAEQGLVIPPFVEPHIHLDTTQTAGQPNWNQSGTLFEGIERWAERKALLTHDDVKQRAWQTLKWQIANGIQHVRTHVDVSDATLTALKAMLEVKQEVAPWIDLQIVAFPQEGILSYPNGEALLEEALRLRADVVGAIPHFEFTREYGVESLHKTFALAQKYDRLIDVHCDEIDDEQSRFVETVAALAHHEGMGARVTASHTTAMHSYNGAYTSRLFRLLKMSGINFVANPLVNIHLQGRFDTYPKRRGITRVKEMLESGINVCFGHDDVFDPWYPLGTANMLQVLHMGLHVCQLMGYGQINDGLNLITHHSARTLNLQDYGIAAGNSANLIILPAENGFDALRRQVPVRYSVRGGKVIASTQPAQTTVYLEQPEAIDYKRLEHHHHHH
notes: Fusion of the RGD4C peptide with E. coli cytosine deaminase; His6-tagged
With B5 the “IC50 of 5-FC, MTT cytotoxicity, HUVEC cells incubated with 50 nM protein then washed” value [10] was 35.9 µM, the “IC50 of 5-FC, MTT cytotoxicity, MCF-7 cells (low αvβ3) incubated with 50 nM protein then washed” value [10] was > 10000 µM and the “IC50 of 5-FC, MTT cytotoxicity, U87MG cells incubated with 50 nM protein then washed” value [10] was 44.1 µM. For the same binder, the “protein reaction concentration IC50 of cytotoxic effect, MTT, HUVEC cells, 100 µM 5-FC” value [11] was 0.0229 µM, the “protein reaction concentration IC50 of cytotoxic effect, MTT, U87MG cells, 100 µM 5-FC” value [11] was 0.0385 µM and the “fold binding ability against MCF-7” value [2] was 16.1 fold. The “fold binding ability against MCF-7” value [3] was 23.7 fold, the Kd (integrin αvβ3 receptor [12]) was 0.007 µM and the Kd [13] was 0.0203 µM. For the same binder, the Kd [14] was 0.0138 µM and the Kd [15] was 0.327 µM.

B6: RGD4C-EcCD_D314A (other)
chain: B5 chain with D326A
notes: Fusion of the RGD4C peptide with the E. coli cytosine deaminase D314A mutant; His6-tagged
For B6, the “IC50 of 5-FC, MTT cytotoxicity, HUVEC cells incubated with 50 nM protein then washed” value [10] was 8.2 µM, the “IC50 of 5-FC, MTT cytotoxicity, MCF-7 cells (low αvβ3) incubated with 50 nM protein then washed” value [10] was > 10000 µM and the “IC50 of 5-FC, MTT cytotoxicity, U87MG cells incubated with 50 nM protein then washed” value [10] was 5 µM. For the same binder, the “protein reaction concentration IC50 of cytotoxic effect, MTT, HUVEC cells, 100 µM 5-FC” value [11] was 0.0098 µM, the “protein reaction concentration IC50 of cytotoxic effect, MTT, U87MG cells, 100 µM 5-FC” value [11] was 0.004 µM and the “fold binding ability against MCF-7” value [2] was 12.9 fold. For the same binder, the “fold binding ability against MCF-7” value [3] was 19.9 fold, the Kd (integrin αvβ3 receptor [12]) was 0.0091 µM and the Kd [13] was 0.0233 µM. It also gave a Kd [14] of 0.0151 µM and a Kd [15] of 0.3 µM.

B7: DTPA-RGD4C-yCD (other)
chain: MACDCRGDCFCVTGGMASKWDQKGMDIAYEEAALGYKEGGVPIGGCLINNKDGSVLGRGHNMRFQKGSATLHGEISTLENCGRLEGKVYKDTTLYTTLSPCDMCTGAIIMYGIPRCVVGENVNFKSKGEKYLQTRGHEVVVVDDERCKKIMKQFIDERPQDWFEDIGELEHHHHHH
modifications: DTPA on primary amines, 0.94 DTPA per protein on average
Binder B7 has a Kd (integrin αvβ3 receptor [16]) of 0.0476 µM and a Kd (integrin αvβ3 receptor [17]) of 0.0476 µM.

B8: yeast cytosine deaminase (yCD) (enzyme)
chain: MVVTGGMASKWDQKGMDIAYEEAALGYKEGGVPIGGCLINNKDGSVLGRGHNMRFQKGSATLHGEISTLENCGRLEGKVYKDTTLYTTLSPCDMCTGAIIMYGIPRCVVGENVNFKSKGEKYLQTRGHEVVVVDDERCKKIMKQFIDERPQDWFEDIGELEHHHHHH
notes: Recombinant, from pET28a(+), detected by its His6 tag
B8: no binding (integrin αvβ3 receptor [9]).
